Laboratory results reported in US20200353049A1.
Several values for one entry are separate records, joined by “and”; a condition that tells them apart may be missing. Equal entries are not always repeated.

Columns and labels:
[1] = target: IL-22R1a extracellular domain (ECD) (UniProt Q8N6P7); assay: potency assay (binding ELISA on plate-coated IL-22R1a ECD), relative to reference standard (100%); stored 25 C, 2 months
[2] = target: IL-22R1a extracellular domain (ECD) (UniProt Q8N6P7); assay: binding ELISA on plate-coated IL-22R1a ECD, relative to Reference Standard (100%); stored -20 C, 36 months
[3] = target: IL-22R1a extracellular domain (ECD) (UniProt Q8N6P7); assay: binding ELISA on plate-coated IL-22R1a ECD, relative to Reference Standard (100%); stored 5 C, 3 months
[4] = target: IL-22R1a extracellular domain (ECD) (UniProt Q8N6P7); assay: potency assay (binding ELISA on plate-coated IL-22R1a ECD), relative to reference standard; 40 C stress, day 14
[5] = target: IL-22R1a extracellular domain (ECD) (UniProt Q8N6P7); assay: potency assay (binding ELISA on plate-coated IL-22R1a ECD), relative to reference standard; 40 C stress, day 0
[6] = target: IL-22R1a extracellular domain (ECD) (UniProt Q8N6P7); assay: binding ELISA on plate-coated IL-22R1a ECD, relative to Reference Standard (100%); stored 5 C, 6 months
[7] = target: IL-22R1a extracellular domain (ECD) (UniProt Q8N6P7); assay: binding ELISA on plate-coated IL-22R1a ECD, relative to Reference Standard; pH 7.0 formulation stored 4 weeks at 30 C
[8] = target: IL-22R1a extracellular domain (ECD) (UniProt Q8N6P7); assay: binding ELISA on plate-coated IL-22R1a ECD, relative to Reference Standard; pH 7.0 formulation stored 1 week at 40 C
[9] = target: IL-22R1a extracellular domain (ECD) (UniProt Q8N6P7); assay: binding ELISA on plate-coated IL-22R1a ECD, relative to Reference Standard (100%); stored -20 C, 12 months
[10] = target: IL-22R1a extracellular domain (ECD) (UniProt Q8N6P7); assay: binding ELISA on plate-coated IL-22R1a ECD, relative to Reference Standard (100%); stored -20 C, 24 months
[11] = target: IL-22R1a extracellular domain (ECD) (UniProt Q8N6P7); assay: binding ELISA on plate-coated IL-22R1a ECD, relative to Reference Standard (100%); stored -20 C, 30 months
[12] = target: IL-22R1a extracellular domain (ECD) (UniProt Q8N6P7); assay: potency assay (binding ELISA on plate-coated IL-22R1a ECD), relative to reference standard (100%); T=0
[13] = target: IL-22R1a extracellular domain (ECD) (UniProt Q8N6P7); assay: binding ELISA on plate-coated IL-22R1a ECD, relative to Reference Standard (100%); stored -20 C, 60 months
[14] = target: IL-22R1a extracellular domain (ECD) (UniProt Q8N6P7); assay: potency assay (binding ELISA on plate-coated IL-22R1a ECD), relative to reference standard (100%); stored 5 C, 9 months
[15] = target: IL-22R1a extracellular domain (ECD) (UniProt Q8N6P7); assay: potency assay (binding ELISA on plate-coated IL-22R1a ECD), relative to reference standard (100%); stored 25 C, 3 months
[16] = target: IL-22R1a extracellular domain (ECD) (UniProt Q8N6P7); assay: binding ELISA on plate-coated IL-22R1a ECD, relative to Reference Standard (100%); stored -20 C, 48 months
[17] = target: IL-22R1a extracellular domain (ECD) (UniProt Q8N6P7); assay: binding ELISA on plate-coated IL-22R1a ECD, relative to Reference Standard (100%); stored -20 C, 9 months
[18] = target: IL-22R1a extracellular domain (ECD) (UniProt Q8N6P7); assay: potency assay (binding ELISA on plate-coated IL-22R1a ECD), relative to reference standard (100%); stored 5 C, 6 months
[19] = target: IL-22R1a extracellular domain (ECD) (UniProt Q8N6P7); assay: binding ELISA on plate-coated IL-22R1a ECD, relative to Reference Standard (100%); T=0
[20] = target: IL-22R1a extracellular domain (ECD) (UniProt Q8N6P7); assay: binding ELISA on plate-coated IL-22R1a ECD, relative to Reference Standard; 10 mM sodium phosphate, 240 mM sucrose, 0.02% PS20, pH 7.0; control sample
[21] = target: IL-22R1a extracellular domain (ECD) (UniProt Q8N6P7); assay: potency assay (binding ELISA on plate-coated IL-22R1a ECD), relative to reference standard (100%); stored 5 C, 36 months
[22] = target: IL-22R1a extracellular domain (ECD) (UniProt Q8N6P7); assay: potency assay (binding ELISA on plate-coated IL-22R1a ECD), relative to reference standard (100%); stored 5 C, 42 months
[23] = target: IL-22R1a extracellular domain (ECD) (UniProt Q8N6P7); assay: potency assay (binding ELISA on plate-coated IL-22R1a ECD), relative to reference standard; 40 C stress, day 5
[24] = target: IL-22R1a extracellular domain (ECD) (UniProt Q8N6P7); assay: binding ELISA on plate-coated IL-22R1a ECD, relative to Reference Standard (100%); stored -20 C, 3 months
[25] = target: IL-22R1a extracellular domain (ECD) (UniProt Q8N6P7); assay: potency assay (binding ELISA on plate-coated IL-22R1a ECD), relative to reference standard (100%); stored 5 C, 3 months
[26] = target: IL-22R1a extracellular domain (ECD) (UniProt Q8N6P7); assay: potency assay (binding ELISA on plate-coated IL-22R1a ECD), relative to reference standard (100%); stored 5 C, 24 months
[27] = target: IL-22R1a extracellular domain (ECD) (UniProt Q8N6P7); assay: potency assay (binding ELISA on plate-coated IL-22R1a ECD), relative to reference standard (100%); stored 5 C, 48 months
[28] = target: IL-22R1a extracellular domain (ECD) (UniProt Q8N6P7); assay: binding ELISA on plate-coated IL-22R1a ECD, relative to Reference Standard (100%); stored -20 C, 24 months; remark: listed apart in the source

Chain of UniProt Q8N6P7 (Q8N6P7 16-228 limits assumed): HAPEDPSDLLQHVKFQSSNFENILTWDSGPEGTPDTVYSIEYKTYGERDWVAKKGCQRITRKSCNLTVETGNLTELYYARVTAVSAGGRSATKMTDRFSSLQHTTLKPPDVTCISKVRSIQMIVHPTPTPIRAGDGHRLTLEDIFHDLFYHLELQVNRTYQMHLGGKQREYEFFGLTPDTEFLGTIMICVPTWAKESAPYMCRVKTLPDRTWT

With IL-22 Fc fusion protein the Potency (% relative potency) (% relative potency) [1] was 60, the Potency by Binding Assay (% relative potency) (% relative potency) [2] was 107 and the Potency by Binding Assay (% relative potency) (% relative potency) [3] was 105. For the same substance, the Potency (% relative potency) (% relative potency) [4] was 71 and 57, the Potency (% relative potency) (% relative potency) [5] was 104 and 85 and the Potency by Binding Assay (% relative potency) (% relative potency) [6] was 98. It also gave an Estimated % relative potency (n = 2) (% relative potency) [7] of 79, an Estimated % relative potency (n = 2) (% relative potency) [8] of 81 and a Potency by Binding Assay (% relative potency) (% relative potency) [9] of 91. It also gave a Potency by Binding Assay (% relative potency) (% relative potency) [10] of 70, a Potency by Binding Assay (% relative potency) (% relative potency) [11] of 70 and a Potency (% relative potency) (% relative potency) [12] of 101. It also gave a Potency by Binding Assay (% relative potency) (% relative potency) [13] of 99, a Potency (% relative potency) (% relative potency) [14] of 63 and a Potency (% relative potency) (% relative potency) [15] of 57. The Potency by Binding Assay (% relative potency) (% relative potency) [16] was 93, the Potency by Binding Assay (% relative potency) (% relative potency) [17] was 68 and the Potency (% relative potency) (% relative potency) [18] was 100. The Potency by Binding Assay (% relative potency) (% relative potency) [19] was 71, the Estimated % relative potency (n = 2) (% relative potency) [20] was 89 and the Potency (% relative potency) (% relative potency) [21] was 99. The Potency (% relative potency) (% relative potency) [22] was 59, the Potency (% relative potency) (% relative potency) [23] was 80 and the Potency by Binding Assay (% relative potency) (% relative potency) [24] was 72. For the same substance, the Potency (% relative potency) (% relative potency) [25] was 73, the Potency (% relative potency) (% relative potency) [26] was 66 and the Potency (% relative potency) (% relative potency) [27] was 65. It also gave a Potency by Binding Assay (% relative potency) (% relative potency) [28] of 97.
